Patent US7176188B2, “Method of lethally sensitizing human and animal cells” (UniversitéLaval, priority 2003, dated 2007)

B1: His-PME-4: His-tagged recombinant C. elegans PARG PME-4 (SEQ ID NO:11) expressed in bacteria from pET23a-PME-4 (protein)
chain: MDHENLMKYLEEFRSIRFQPDFQKVDAERNVRYCEITDFPISNISFELLETGVSQQWRNCDQNLFNEYLKTYKNGGYSQFEDLLFKIWGYSEEKERFDLPALKSFYRKMSEIVGEDEVLEKLARLVRITKSACEVLPEKIYRLVGDIESATFSHIQCASLIAWMFFSDTPRLSFIIILQKTTCVAVEKLKFLFTYFDKMSIDPPIGAVSFRKMRITHKQYLENWKLRETNLLPDVQVFDKMSIEETALCTQIDFANKRLGGGVLKGGAVQEEIRFMMCPEMMVAILLNDVTQDLEAISIVGAYVFSSYTGYSNTLKWAKITPKHSAQNNNSFRDQFGRLQTETVAIDAVRNAGTPLECLLNQLTTEKLTREVRKAAIGFLSAGDGFSKIPVVSGWWGCGAFRGNKPLKFLIQVIACGISDRPLQFCTFGDTELAKKCEEMMTLFRNNNVRTGQLFLIINSIGPPLNYSEQYVFDAIRAKINSTKA
modifications: His tag; PEPTIDE (1)...(485) PME-4
B2: His-PME-3L: His-tagged recombinant C. elegans PARG PME-3L (SEQ ID NO:9) expressed in bacteria from pQE-PME-3L (protein)
chain: MSKKFIELGDPVTQDEKDYEDYVGVGFAHQVPTMKRRKLTEHGNTTESKEDPEEPKSRDVFVSSQSSDESQEDSAENPEIAKEVSENCENLTETLKISNIESLDNVTERSEHTLDNHKSTEPMEEDVNNKSNIDVAINSDEDDELVLEENNKEMRDGEQVQQDLFADDQELIEYPGIMKDTTTQLDITDSEVETAQKMEMIEETEADSTFVGEDSKNQRQSGTTSDEVDADSQINLATKTVRTSSSSFLSTVSTCEAPAKGRARMYQKELEKHVIAFTEGNLTLQPDLNKVDPDRNYRYCTIPNFPASQGKLREDNRYGPKIVLPQRWREFDSRGRRRDSYFYFKRKLDGYLKCYKTTGYFMFVGLLHNMWEFDPDITYKLPALEMYYKEMSELVGREEVLEKFARVARIAKTAEDILPERIYRLVGDVESATLSHKQCAALVARMFFARPDSPFSFCRILSSDKSICVEKLKFLFTYFDKMSMDPPDGAVSFRLTKMDKDTFNEEWKDKKLRSLPEVEFFDEMLIEDTALCTQVDFANEHLGGGVLNHGSVQEEIRFLMCPEMMVGMLLCEKMKQLEAISIVGAYVFSSYTGYGHTLKWAELQPNHSRQNTNEFRDRFGRLRVETIAIDAILFKGSKLDCQTEQLNKANIIREMKKASIGFMSQGPKFTNIPIVTGWWGCGAFNGDKPLKFIIQVIAAGVADRPLHFCSFGEPELAAKCKKIIERMKQKDVTLGMLFSMINNTGLPHKHFEFYVFDRISTYLSSSEDVESSKSSPSVSRA
modifications: His tag; PEPTIDE (1)...(781) PME-3L

Test: PARG activity of bacterial extracts expressing recombinant protein (TLC release of 32P-ADP-ribose from 32P-poly(ADP-ribose))
Assay type: biochemical, C. elegans
Settings: for PARG activity (qualitative): bacterially expressed His-tagged protein, 24 h at 37° C.
Method: Cultures of M15-pREP4 bacteria transformed with pQE-PME-3L, were grown overnight at saturation at 37° C. Fresh cultures (1000 ml) were started with 50-mL overnight cultures and grown at 37° C. at OD600 nm 0.600. Cultures were then induced with 1 mM isopropyl-1-thio-β-d-galactopyranoside (IPTG) at 37° C. for 2.5 h. M15-pREP4 bacteria transformed with vector alone were also treated with 1 mM IPTG at 37° C. for 2.5 h. Cultures were pelleted at 3000×g for 10 min at 4° C., resuspended in 10 ml extraction buffer (50 mM KPO4, pH 7.5, 50 mM Kcl, 10 mM β-mercaptoethanol, 0.1% triton X-100) and passed twice at 16,000 psi in a French Pressure Cell (SLM-AMINCO®, Rochester, N.Y.) maintained at 4° C. Extracts were centrifuged for 10 min at 1000×g at 4° C. and protein concentration of supernatants were determined. Each supernatant (23.7 mg/ml for M15+pQE-30 and 22.2 mg/ml for pQE-PME-3L) were analyzed on SDS-PAGE and assayed for PARG activity.
PARG activity was determined according to Ménard et al (1987, Biochem. Cel Biol. 65: 668–673). Ten μl of worm or bacterial extracts were assayed for 24 h at 37° C. in the presence of ^32P-poly(ADP-ribose) followed by a thin layer chromatography. Radiolabeled ADP-ribose units released from ADP-ribose polymers were quantified directly on the TLC using an Instant Imager Electronic Autoradiography device (Canberra-Packard). One unit of PARG is defined as the amount of enzyme required to liberate 1 nmol of ADP-ribose per min at 37° C. under assay conditions (Menard and Poirier, 1987, Biochem. Cell Biol. 65: 668–673). Radiographic X-OMAT film was exposed to the TLC plate and placed at −80° C. for 24 h.

Molecule | PARG activity (qualitative) | PARG activity compared to His-PME-4 (bacterial extracts, similar rate of bacterial expression)
B1 | display PARG activity | 
B2 | display PARG activity | ~10 times
